Reference: US20240293570A1 (priority 2021, published 2024)
Read-outs that look alike come from different tables or passages of the source. *1 amine or outer side, *2 acyl side, *3 side chain or, on linkers, in order; H or OH if unused. Where a SMILES comes first, the peptide text is derived from it. [ ]: non-standard residue; d: D form. The star is where a group is joined. MaleimidoPEG4propanoyl = O=C1C=CC(=O)N1CCOCCOCCOCCOCCC(=O)*; X2 = CO[C@@H]([C@H]1CCCN1[*:1])[C@@H](C)C(=O)[*:2]; Propanoyl(3-maleimido) = O=C1C=CC(=O)N1CCC(=O)*; Dil = CC[C@H](C)[C@H](NC)[C@@H](CC(=O)O)OC; X1 = O=C(CN1CCOCCN([*:1])CCOCC1)[*:2]; PABC = O=C(OCc1ccc(N[*:1])cc1)[*:2]; X3 = C[C@@H](N*)[C@@H](O)c1ccccc1; NMeV = CN[C@H](C(=O)O)C(C)C

Legend:
[1] = Stability (placement) test of ADCs at 40° C. in dark for 14 days, DAR and polymer content; type: physicochemical
Procedure: (§1) Polymers (high molecular components) of the antibody-drug conjugates were tested using molecular exclusion high-performance liquid chromatography (SE-HPLC). A Biocore SEC chromatographic column (7.8×300 mm, […]) was used, and the mobile phase was 50 mM phosphate containing 300 mM sodium chloride (pH 6.8), with a flow rate of 0.5 mL/min. Samples of […] and 10 μl were injected. […] The polymer content of an antibody-drug conjugate was calculated using an area normalization method.
(§2) A drug-antibody conjugating ratio (also known as drug-antibody ratio, abbreviated as DAR) of the antibody-drug conjugate was tested using reversed-phase high-performance liquid chromatography-mass chromatography (RP-HPLC-MS). The ADC sample was diluted with 50 mmol/L Tris buffer (pH 8.0) to 1 mg/ml. A fresh dithiothreitol (DTT) stock solution was added to achieve a final DTT concentration of 50 mmol/L. Incubation was performed at 37° C. for 30 minutes. A PLRP-S chromatographic column (1000 Å pores, 2.1×50 mm, 5) μm) was used, and the column temperature was 70° C. The flow rate was 0.25 mL/min. […] of sample was injected; the mobile phase A was an aqueous solution of 0.1% formic acid (V/V) and 0.025% trifluoroacetic acid (V/V), and the mobile phase B was an acetonitrile solution of 0.1% formic acid (V/V) and 0.025% trifluoroacetic acid (V/V); the running time was 0-3 minutes, where 27% of mobile phase B ran for 3 minutes, and the mobile phase B ran from 27% to 49% within 3-25 minutes, from 49% to 95% within 25-26 minutes, at 95% within […], from 95% to 27% within 30-31.5 minutes, and at 27% for 31.5-45 minutes. […] Mass spectrometry drying gas was at a temperature of 350° C. and a flow rate of 7.0 L/min, the pressure of an atomizer was 40 psi, capillary voltage was positive 3000V and negative 3000V, and the mass range was 500-1600 m/z. The molecular weight of each mass spectrometry peak (ranging from 20000 to 70000) was calculated by deconvolution and compared with light and heavy chain molecular weights of un-conjugated antibodies to calculate a drug load at each peak, so as to determine the load of a corresponding ultraviolet peak. Area percentages of heavy and light chain ultraviolet peaks were calculated through integration, and a weighted average DAR of the antibody-drug conjugate was calculated by combining the area percentages with the drug load distribution of each peak.
Stability testing method: The stability of the obtained ADCs was tested for 14 days. The ADCs were placed at 40° C. in dark. Sampling points were days 0, 7, and 14. The polymer content and DAR value of samples at different sampling points were tested according to the method in Experimental Example 1.

[2] = type: physicochemical; details: ADC with Her2 antibody, RP-HPLC-MS
Procedure: as §2

[3] = Naked antibody content of antibody-drug conjugates by hydrophobic interaction chromatography (HIC); type: physicochemical; details: ADC with Her2 antibody
Procedure: The content of naked antibodies in the antibody-drug conjugate was tested using hydrophobic interaction chromatography (HIC). A Biocore HIC-Butyl chromatographic column (4.6×150 mm, 5 μm) was used. The mobile phase A was a 100 mM phosphate aqueous solution containing 2 M ammonium sulfate (pH 7.0), and the mobile phase B was a 100 mM phosphate aqueous solution (pH 7.0): isopropanol=80:20 (V/V). Samples of 50 μg and 10 μl were injected. The mobile phase A at the flow rate of 1 mL/min ran at 100% for 3 minutes. Within 3-25 minutes, the mobile phase B ran from […] to 100%, while the mobile phase B decreased to 0% at 25.1 and ran to 30 minutes. […] The naked antibody content of the antibody-drug conjugate was calculated using an area normalization method based on the retention time of a naked antibody peak located by the antibody of the antibody-drug conjugate.

[4] = Polymer (high molecular component) content of antibody-drug conjugates by SE-HPLC; type: physicochemical; details: ADC with Her2 antibody
Procedure: as §1

Compound | DAR ([1]; Day 0, 40° C. in dark) | Polymer content (%) ([1]; Day 0, 40° C. in dark) | DAR ([1]; Day 7, 40° C. in dark) | Polymer content (%) ([1]; Day 7, 40° C. in dark) | DAR ([1]; Day 14, 40° C. in dark) | Polymer content (%) ([1]; Day 14, 40° C. in dark) | DAR [2] | Naked antibody content (%) [3] [%] | Polymer content (%) [4] [%]
CCc1c2c(nc3ccc(O)cc13)-c1cc3c(c(=O)n1C2)COC(=O)[C@@]3(CC)OC(=O)N(C)CCN(C)C(=O)COCNC(=O)[C@H](CC(N)=O)NC(=O)[C@H](C)NC(=O)[C@H](C)NC(=O)CN1CCOCCN(C(=O)CCN2C(=O)C=CC2=O)CCOCC1 [Example 83] | 3.96 | 0.56 | 3.98 | 0.59 | 3.96 | 0.58 | 3.96 | 2.23 | 0.56
CC[C@H](C)[C@@H]([C@@H](CC(=O)N1CCC[C@@H]1[C@H](OC)[C@@H](C)C(=O)N[C@H](C)[C@@H](O)c1ccccc1)OC)N(C)C(=O)[C@@H](NC(=O)[C@H](C(C)C)N(C)C(=O)OCc1ccc(NC(=O)CNC(=O)[C@H](Cc2ccccc2)NC(=O)CNC(=O)CNC(=O)CN2CCOCCN(C(=O)CCOCCOCCOCCOCCN3C(=O)C=CC3=O)CCOCC2)cc1)C(C)C [Example 85] (MaleimidoPEG4propanoyl-[X1]GGFG[PABC][NMeV]V[Dil][X2]-X3) | 4.04 | 1.43 | 4.08 | 1.48 | 4.00 | 1.45 | 4.04 | 1.98 | 1.43
CC[C@H](C)[C@@H]([C@@H](CC(=O)N1CCC[C@@H]1[C@H](OC)[C@@H](C)C(=O)N[C@H](C)[C@@H](O)c1ccccc1)OC)N(C)C(=O)[C@@H](NC(=O)[C@H](C(C)C)N(C)C(=O)OCc1ccc(NC(=O)CNC(=O)[C@H](Cc2ccccc2)NC(=O)CNC(=O)CN2CCOCCN(C(=O)CCN3C(=O)C=CC3=O)CCOCC2)cc1)C(C)C [Example 86] ({Propanoyl(3-maleimido)}-[X1]GFG[PABC][NMeV]V[Dil][X2]-X3) | 4.20 | 0.97 | 4.23 | 0.99 | 4.16 | 1.11 | 4.20 | 3.45 | 0.97
C=C1C[C@@H]2CC[C@@]34C[C@H]5OC6C(O[C@H]7CC[C@H](CC(=O)C[C@@H]8[C@@H](OC)[C@@H](C[C@H](O)CNC(=O)OCc9ccc(NC(=O)[C@H](CCCNC(N)=O)NC(=O)[C@@H](NC(=O)CN%10CCOCCN(C(=O)CCN%11C(=O)C=CC%11=O)CCOCC%10)C(C)C)cc9)O[C@H]8C[C@H]8O[C@@H](CC[C@@H]1O2)C[C@@H](C)C8=C)O[C@@H]7[C@@H]6O3)[C@H]5O4 [Example 87] | 3.85 | 1.12 | 3.87 | 1.15 | 3.81 | 1.24 | 3.85 | 2.11 | 1.12
